The text below walks through data of patent CN107286237A.

What all share (experiment): SPR, BiaCore X-100, TRN1007 captured by goat anti-human IgG on CM5 chip, E2-core as analyte
(In general: In SPR one partner is held on a chip, and binding of the other changes the refractive index at the surface.)

In experiment [1] the target is HCV包膜糖蛋白 HCV-E2-core 基因型4a (Hepatitis C virus genotype 4a).
Experiment [2] deals with HCV包膜糖蛋白 HCV-E2-core 基因型2a (Hepatitis C virus genotype 2a).
For experiment [3], the target named is HCV包膜糖蛋白 HCV-E2-core 基因型7a (Hepatitis C virus genotype 7a).
For experiment [4], the target named is HCV包膜糖蛋白 HCV-E2-core 基因型6a (Hepatitis C virus genotype 6a).

B1: 全人源抗HCV单克隆中和抗体TRN1007 (antibody, V domains shown)
VH: EVQLVQSGAEVKKPGSSVKVSCKASGGSFRSYGFSWVRQAPGQGLEWMGRIIPAANFADYAPKFQDRVTISADKSTSTAYMELKSLRSDDTAVYYCARDQDLSGELTALYYYHGLDVWGQGTTVTVSS
VL: EIVLTQSPGTLSLSPGQRVTLSCRASQSVSNNYIAWYQQKPGQAPRLLISGASSRATGIPDRFSGTGSGTDFTLAISRLEPEDFAVYYCQQYGDSFWTFGQGTKVEIK
Usually Kd stands for a measure of binding affinity in units of concentration. A lower Kd goes with higher affinity. The koff is a measure of how fast the partners let go of each other. As a reminder, the kon is the second-order rate constant of association. Low readings indicate slow association, high ones fast association. In the case of B1, the equilibrium dissociation constant (Kd) in experiment [1] was 1.59 pM; in experiment [2], 1.07 pM; in experiment [3], 17.8 pM; in experiment [4] it was 179 pM. Further, the koff turned out to be 7.17e-08 s⁻¹ in experiment [1], 8.63e-08 s⁻¹ in experiment [2], 1.68e-06 s⁻¹ in experiment [3] and 5.36e-07 s⁻¹ in experiment [4]. The on-rate (kon) in experiment [1] amounted to 45100 M⁻¹ s⁻¹; in experiment [2] it was 80500 M⁻¹ s⁻¹; in experiment [3], 94400 M⁻¹ s⁻¹; in experiment [4] it was 2990 M⁻¹ s⁻¹.
